The target of the experiment is Xenopus laevis ERCC1 (Xenopus laevis (endogenous in egg extract)). The experiment can be described thus: immunodepletion.

The results in this text go back to PMC5067070.

In turn, Xenopus laevis SLX4 (natural protein) showed a percent of SLX4 co-depleted of 90%.
